# Experimental data from the DeepSol protein solubility set.
# Experiment: soluble on expression in E. coli; label from the status in PepcDB or PDB records
row,Sequence,soluble on expression in E. coli
1,MKITHCKLKKEVQKEPLRSFVPEVTARSAADILGIHPDSAALFYRKIRTVANHRLALAADGVFEGPAGPGGSYFGGRRKGRRGRGAAGKAVVFGIPKRNGRAYTVAADNAEPETLPPAVKKKIMPDGIVYADSPGSRGKLDAGGFTRCRINRSKEFADRRNHINGIGDFWNQAKRALRKYNGIDRKPFPPFLRECEFRLNFGTPSRQLKILRDRCGILEHHHHHH,not soluble
2,MKITLSKRIGLLAFLLPCALALSTTVHAETNKLVIESGDSAQSRQHAAMEKEQWNDTRNLRQKVNKRTEKEWDKADAAFDNRDKCEQSANINAYWEPNTLRCLDRRTGRVITPLEHHHHHH,not soluble
3,MKIVEGVSLHLIKNQQFKTNHLTFRFSGDFNNKTVARRSLVAQMLVTANAKYPKVQEFREKLASLYGASLSTKISTKGLVHIVDIDIVFVKNTFTLEQENIVEQIITFLEDMLFSPLISLEQYQTSIFDTEKKN,not soluble
4,MKIVIAPDSFKESLSALEVAEAVERGFRTVFPEAEYVKVPMADGGEGTVRSLVDATGGRIVETEVTGPLGEPVRAFFGLLGDGKTAVIEMAAASGLHLVPRDRRNPLVTTTRGTGELILAALDAGATHLIIGIGGSATNDGGAGMVQALGGRLLDEDGCDIGPGGGALADLHAIDLSGLDPRLGGVRIDVACDVDNPLTGPNGASAIFGPQKGATPDMVAVLDRNLAHYADVIRRDLGKQVGDIPGAGAAGGLGAGLLAFLPAELKRGVEIVIETVQLAERVKDADLVITGEGRIDGQTVFGKTPIGVAKTAKQFGVPVIGIAGSLGDDSAVVLDHGIDALFTIVPGVVPLEKALEQAEHYVTQTARHIASVYRLGQMKGTSSS,not soluble
5,MKIVMKISEVRGEILLAAADADIVGKKFREKNLHIEVYPSFYGEVRVTDEMFISSMNICTIANLVGEYTIGVAIDAGFIEKDNILYIQKVPYAQYAKIFQ,soluble
6,MKIVTFQGGLGNQLFQYVFYLWLDMRCDKDNIYGYYPKKGLRAHNGLEIEKVFEVKLPNSSLSTDLIVKSIKLINKIFKNRQYISTDGRLDVNGVLFEGFWQDKYFWEDVDIVLNFRWPLKLDVTNSFIMTKIQANNSISIHIRRGDYLLPKYRNIYGDICNEEYYQKAIEYILKCVDDPFFFVFSDDIDWAKSIINVSNVTFVNNNKGKDSYIDMFLMSLCHHNIIANSTFSWWAAQLNKHSDKIMIAPIRWFKSLFKDPNIFTESWIRILEHHHHHH,not soluble
7,MKIVVAKNIGFCFGVERAIRTVEELLDEGKKVVTDGEIVHNKQVMEQLTKKGLKVSSEMTDGEVFVVRAHGIPKDRLEELKKIFPEVVDLTCPIVSQLFKTAQRYAKERKVIVFGKEDHPEMVALRGYAPAIVTKVPFKLEEKKVVFLSQTTSSLEEYKEFVAAMIRMNEFEEAVFLNTICPVTVNREREVEELSKICDLSIVVGGKHSSNTGKLFRIASKHSKTIWIESPDELPADVVKYGTVCVFSGTSTPNSLIENVVRKLKEMEGKRDGTI,soluble
8,MKKALMICAAGTMIFVSYSAENTAPEVSKAVEDRITKDYDQDGVYSSYEKALRRAQGSIYVTLPEKRGEWYSTLDKIKEEEKELMPDEEARMRRKR,not soluble
9,MKKEFSAGGVLFKDGEVLLIKTPSNVWSFPKGNIEPGEKPEETAVREVWEETGVKGEILDYIGEIHYWYTLKGERIFKTVKYYLMKYKEGEPRPSWEVKDAKFFPIKEAKKLLKYKGDKEIFEKALKLKEKFKL,soluble
10,MKKFFMASLLGSAIALCTTAMAASTDLKALEDAARKEGTVNSVGMPDAWANWKGTWEDLASKYGLKHSDTDMSSAQELAKFEAEKDNASADIGDVGAAFGPIAVTKGVSQPYKPSTWDQVPEWAKDKDGHWALAYTGTIAFIINKDLVKEEERPKTWHDLEKGKYKVAIGDVGTAAQAANGVLAAAIAYKGDESNVAPGLQLFTKLAQQKRLSLANPTIQTLEKGEVEVGVVWDFNGLSYREQIDPKRFEVLIPSDGSVISGYTTVINKYAKHPNAAKLTREYIFSDAGQINLAKGHARPIRAEHLKLPADVQAKLLPNDQYAAAQPIKNAEAWEATSKKLPQMWQEQVIIEME,not soluble
11,MKKILLCCSAGMSTSMLVKKMQQAAESKGIECKIDALSVNAFEEAIQEYDVCLLGPQVRFQLEELRKTADEYGKNIAAISPQAYGMMKGDEVLQQALDLIN,not soluble
12,MKKISEQKRKHLENLVDDQGIIGALAIDQRGALKRMMGKYKEVTAQEISDFKVLVSRCLTPETSAILLDPEYGLAAAENRAQTSGLLLAYEKTGYDASTPGRLPDSLDVWSVKRLKEAGADACKFLLYYDVDESEAINERKKAYIERIGSECLAEEIPFFLEIVSYDANNSDSASKEYAKVKPHKVIEAMKEFSKDRYNVDVLKVEVPVNMNFVEGFGTESLYSQDEAQAFFNMQSEATQLPFIFLSAGVSATMFQETLKFAKKAGSSFNGVLCGRATWADGVLPFVQQGAEAAVAWLETTGKTNVEELNQVLRESAVSVFEKIQ,not soluble
13,MKKKDTCEIFGYDEEKVNRIQGDLQTVDISGVSQILKAIADENRAKITYALCQDEELCVCDIANILGVTIANASHHLRTLYKQGVVNFRKEGKLALYSLGGEAIRQIMMIALAHKKEVKVNV,soluble
14,MKKKLVGVECLNEYICQSSNKLYADSSVILTPGARDELSRRGVTVVYGPRPESGEAPAACPPGCTCPACTAAKADSGLEQLLFAVAAMLKTEYGITDPEELKNLSCQALRTIKANL,not soluble
15,MKKLKMASCALVAGLMFSGLTPNAFAEDKISDVKSQINTQNDTLHKQQQERDELQKQMNDLNKTIQGLDKSVQENAAKLDETTKKVADTEQLIEKKNKDIAELQTKIAKREELLRKRLVALQEQPNTNVVTEVLVNSKNVADLVDRLTSVSKILESDEDIMKTQQEDQANVKKDVETVKTKQKELKEAQAQIETAKKELDAEKAKKATAVNDLSGKMDTVVTSMTSTESQLKDLEKQALQLQRIAEQEAQEKAAQEAAAQKQAEQAAKDAQAQPAQAAPAQPAAPANNGGQAQKEEPKKEEPKKEAPKKEDKKPEPTPGPAPAPGVIGKAQQYLGLPYVWGSASPSNGGFDCSGFISYVFGVGRQDVNGYWHSVSKVSSPQPGDLVFFQNTYKNGPSHIGIYVGNGQMIHAGDKGIAYSSLSSSYNQKHFLGYGRF,not soluble
16,MKKLLAGVLVSAIAFAKPVFMDAEWAKQFCEVWNNTPELVEKLGKSESWTEVPERKLFLYRKDCGPEKQIQLTIKNENGRAVCVYGGWKKDEKTDNDFLMYADTKRWLEMGRKEYGPMKAMLFGRLKFEGPRFVAMKNMGPFEAFLDKIDEVEADTSRCP,not soluble
17,MKKLLIMLIRFYQRYISPLKPPTCRFTPTCSNYFIQALEKHGLLKGTFLGLRRILRCNPLSKGGYDPVPEEFSFKPRRRWS,soluble
18,MKKNLLAIALGSVIALTAAPYSLAANDSTIQSSADYSQLVTKRQVVDQLLNDAVEAFKSPARISHAGFTAKMPSNMEIVTDRLLEAYQLEPYRTDLLISAANAQIYNKNVDRAIELFEQALAVAPDDVDLHAYLAVWQRFKGNQAESDQHMATLAKLNAGKAADINRIFDTVDRVLATPLKEKADKGKLDNKGAIVTLGYALNPDGSMHQILVERLETTLAMAKANPDAIIILTGGVPKNHKTEGKLMADWLIGKGVSKDRIIEENYATSTVGNALFSSYALARHNIKHATIISSASHVRRGQTLFEIASWQTGPQGITFDTVSYPDKPLKDLAKASESELLGIYRDALRTYGMWSYRSYPLESRLEHHHHHH,soluble
19,MKKNLLLLLCLFCLVNVCHAKAKDTFTVFQLNLWHGCTKVPNGDQGIIDVLDQMDADVVFLCEIRDGKQFIPHVIEELEKRGKHYYGETFDLAIGVLSKFKPDSWTKCCIVPGDEGRAMVKMVATIEGQPVSFYSCHLDYRHYQCYMPRGYNGTTWKKMDKPITDEEEVLKANRQSFRDETIRAFIQEVQSDIQQGRPIIMGGDFNEPSHLDWQADTKDLWDHNGAIIHWDCSMMLSKAGFKDAYREKFPNTVRYPGFTFPAGNKLAEEAKLEKLAWAPEADERDRIDFIYYYPLESMLSMKDSKLVGPSETVVRGKITENDSKDKILTPSCIWPSDHKGNLATFKIRKKRLEHHHHHH,not soluble
20,MKKRLNIGLVGLGCVGSAVAKILQENQEIIKDRAGVGIGIKKAVVRDVKKHKGYPFEISNDLESLIEDEEIDIVVELMGGVEAPYLLAKKTLAKQKAFVTANKAMLAYHRYELEQTAKNTPIGFEASVCGGIPIIKALKDGLSANHILSFKGILNGTSNYILSQMFKNQASFKDALKDAQHLGYAELNPEFDIKGIDAAHKLLILASLAYGIDAKLEEILIEGIEKIEPDDMEFAKEFGYSIKLLGIAKKHPDCIELRVHPSMIKNECMLSKVDGVMNAISVIGDKVGETLYYGAGAGGEPTASAVISDIIEIARKKSSLMLGFETPQKLPLKPKEEIQCAYYARLLVSDEKGVFSQISAILAQNDISLNNVLQKEILHSNKAKILFSTHTTNEKSMLNALKELENLQSVLDTPKMIRLEN,not soluble
21,MKKRVHILIMTLMLIVACVGCSGSSDNPPPANSLHSASTIPISAMPSFSTPSPTVEDTENQQSKTVNYLINSMTLEEKIGQIFIVAFRKGKSSRPLKVLDNSTKLKIQNFNPGGIILFSENIDTIPQTQKLIRDMQEASKIPMFIAVDEEGGRIARIGNNPKMHSTKIPSAQTIGLADDPELAYEAGRILGAELSALGFNMNFAPVADVNTNPDNPVIGDRSFGSDPYKVGLMVQAMSKGMQEQNVCTVLKHFPGHGDTSYDSHLGQVVINHDIERLRQIELTPFKMGIKAGADGVMTAHIIMPNITGSNLPATLSEEILSGLLRNELKHEKLIITDAMEMKAISNYWSSSKAAVMAFKAGADIILMPESFEEAYNGILKAVKDGEITEERLNQSLQRILALKFERNILANKESSVDPEKVLGRQEHTDIVVKIMQKAEEQNIP,not soluble
22,MKKSVDFIGVGTGPFNLSIAALSHQIEELNCLFFDEHPHFSWHPGMLVPDCHMQTVFLKDLVSAVAPTNPYSFVNYLVKHKKFYRFLTSRLRTVSREEFSDYLRWAAEDMNNLYFSHTVENIDFDKKSRLFLVQTSRGEYFARNICLGTGKQPYLPPCVKHVTQSCFHASEMNLRRPDLSGKRITVVGGGQSGADLFLNALRGEWGEAAEINWVSRRNNFNALDEAAFADEYFTPEYISGFSGLKEDIRHQLLDEQKMTSDGITADSLLTIYRELYHRFEVLRKPRNIRLLPSRSVTTLESSGPGWKLLMEHHLDRGRESLESDVVIFATGYRSALPQILPSLMPLITMHDKNTFKVRDDFTLEWSGPKENNIFAVNASMQTHGIAEPQLSLMAWRSARILNRVLGRDLFDLSMPPALIQWRSGSRKKPQPEAAALTHYTTNIQE,soluble
23,MKKVAIIGAGIVGATAAYYLSKEKDIAVTVFDDGFGQATKAAAGIICPWFSKRRHKAWYRLARLGADFYQTLLSDLKRDACKVDFYEQSGAFLLKNKAESLDELFEIGQKRKSQSPLIGHLEIQKRADLTGLLADLVGFDRCIYASGAARVEGASLTEALLNASHAKMVNKKVGLQVLSDGNYRVNGKKYTAVLLACGAWLPQILEPLGYKIDIRPQKGQLRDYFFNSEDTEKFPVIMPEGEVDIIPFAHGKVSVGASHENDHGFDLQIDNSVLDKMEKEAQTYFPKLKEATSKNERVGTRAYTRDFAPFFGRVTGLANVYAASGLGSSGLTTGPLIGNQLVKMLLDKELDIQASDYSPDKYIVKNSLEHHHHHH,not soluble
24,MKKWRFLGIDDSFDDRKCCVVGCVTCGGYVEGFLYTEIDIDGLDATDKLISMVRRSKFREQIKCIFLPGITLGGFNLVDIQRVYRETKIPVVVVMRRKPDMEEFDSAMRNLENYELRRKIVEVAGEIHRIGDIYIQTAGLTPSEAEKLVKASLIKGNMPEPVRISHLVASAIIHGESRGKA,soluble
